# Data as given in publication doi:10.1101/2021.12.16.472980.
# Target: Suppressor of potassium transport defect 3 (SKD3), mature IMS form, residues 127-707 (human) (UniProt Q9H078)
# Assay: AUC
substance,measurement,value
"Suppressor of potassium transport defect 3 (SKD3), mature IMS form, residues 127-707 (from UniProt Q9H078 127-707) (enzyme)",stoichiometry N,12
